Laboratory results from patent US20240018229A1 (published 2024).

T1: recombinant human CXCL1 protein (human, UniProt P09341 35-107)
T1 construct: also called human chemokine CXCL1; soluble recombinant human CXCL1
T1 sequence: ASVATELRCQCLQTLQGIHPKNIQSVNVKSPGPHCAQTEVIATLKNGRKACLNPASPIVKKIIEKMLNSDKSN

T2: mouse CXCL1 (mouse, UniProt P12850 25-96, limits assumed)
T2 sequence (looked up): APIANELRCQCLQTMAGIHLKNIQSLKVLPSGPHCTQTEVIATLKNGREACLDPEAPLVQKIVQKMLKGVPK

T3: rat CXCL1 (rat, UniProt P14095 25-96, limits assumed)
T3 sequence (looked up): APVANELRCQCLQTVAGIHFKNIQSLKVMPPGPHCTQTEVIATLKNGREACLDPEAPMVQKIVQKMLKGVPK


Columns and labels:
[1] = target: T1, recombinant human CXCL1 protein; experiment: ELISA, human CXCL1 coated 30 ng per well, IgG 1/10 dilute original, donkey anti-human HRP, TMB
Description: The human CXCL1 protein was coated onto 96-well, 30 ng for well at 4° C. overnight. The plate was blocked by 3% skim milk in PBS 2 h at room temperature. The plate was washed 3 times with PBST and applied anti-human CXCL1 humanized version IgG antibodies were diluted 1/100 and 1/10 in PBS and subjected into antigen coated plate for 1 h at room temperature. The donkey anti-human monoclonal antibody with HRP conjugate antibody was diluted 1/3000 and applied for 45 min at room temperature, afterwards washed 3 times with PBST and developed with TMB solution.

[2] = target: T1, recombinant human CXCL1 protein; experiment: apparent affinity-binding constant, in PBS; method not stated; in PBS
[3] = target: T2, mouse CXCL1; experiment: immunoblot strip (the text does not name the assay); 10, 20 and 30 ng of CXCL1 of each species loaded
[4] = target: T3, rat CXCL1; experiment: as above
[5] = target: T1, recombinant human CXCL1 protein; experiment: apparent KD from the absorbance (450 nm) curve in human serum diluted 1:4
[6] = target: T1, recombinant human CXCL1 protein; experiment: apparent affinity-binding constant, in serum 1:40 dilution; method not stated; serum, 1:40 dilution

| ELISA signals [1] | Kd [2] | binding result [3] | binding result [4] | Kd [5] | Kd [6] | Binder |
| --- | --- | --- | --- | --- | --- | --- |
| 2.1 |  |  |  |  |  | Hum2401 IgG antibody (antibody, V domains shown, also called Hum2401 Ab; Pcmvdhfr-Hum2401(H+L)) VH: QVQLVESGGGLVQPGGSLRLSCKASGYTFTSYYIYWVRQAPGKGLEWIGEIDPSHGGPTFNEKFKNRFTISRDNSKNTLYLQMNSLRAEDTAVYYCTRESGTGAMDYWGQGTLVTVSS VL: DIQMTQSPSSLSASVGDRATISCKASQSVDYDGDSYVNWYQQKPGKAPKLLIYAASNLESGIPSRFSGSGSGTDFTLTISSLQPEDFATYYCQQSSEDPWTFGQGTKVEIKR |
|  | 0.176 µg/mL | no binding (tested: 30 ng) | no binding (tested: 30 ng) | 0.387 µg/mL | 0.252 µg/mL | anti-CXCL1 neutralizing monoclonal mouse antibody (HL2401) (antibody, V domains shown, also called CXCL1 mAb (HL2401); mouse anti-human CXCL1 antibody HL2401) VH: EVKLVESGAELVKPGASVKLSCKASGYTFTSYYIYWVKQRPGQGLEWIGEIDPSHGGPTFNEKFKNKATLTVDKSSSTAYMQLSSLTSDDSAVYYCTRESGTGAMDYWGQGTTLTVSS VL: DIVLTQSPASLAVSLGQRATISCKASQSVDYDGDSYVNWYQQKPGQPPKLLIYAASNLESRIPARFSGSGSGTDFTLNILPVEEDDGATYYCQQSSEDPWTFGGGTKLEIKR |
